Assay type in all cases: biochemical
Assay [1] has as its target T1, SIRT2 (Homo sapiens, UniProt Q8IXJ6).
T1 construct: made in house; host or cells: transfected mammalian cells (293 cells are named for the Flag-SIRT constructs)
T1 sequence (Q8IXJ6 1-389): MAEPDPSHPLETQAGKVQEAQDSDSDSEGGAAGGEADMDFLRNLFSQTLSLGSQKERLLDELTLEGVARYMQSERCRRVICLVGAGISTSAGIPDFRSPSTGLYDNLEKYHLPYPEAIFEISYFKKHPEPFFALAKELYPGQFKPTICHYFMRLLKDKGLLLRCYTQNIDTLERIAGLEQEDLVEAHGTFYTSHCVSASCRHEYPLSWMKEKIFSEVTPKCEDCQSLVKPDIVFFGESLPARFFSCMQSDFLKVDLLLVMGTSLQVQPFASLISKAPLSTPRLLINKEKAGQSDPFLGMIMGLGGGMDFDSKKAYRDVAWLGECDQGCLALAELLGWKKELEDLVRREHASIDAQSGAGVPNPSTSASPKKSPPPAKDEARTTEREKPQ
The assay can be described thus: In vitro deacetylation assay, acetylated tubulin as substrate of purified SIRT2. The following applies: nicotinamide 5 mM, increasing amounts of DBC1 (FIG. 3d).

The target in assay [2] is HDAC1 (Homo sapiens, UniProt Q13547). The assay can be described thus: In vitro deacetylation of p53 by purified HDAC1 complex. Conditions: purified HDAC1 complexes, increasing amounts of DBC1 (FIG. 9). How it is done:
FIG. 9. Effect of DBC1 on HDAC1 mediated p53 deacetylation in vitro. Purified HDAC1 complex was used to deacetylate p53 in vitro (lane 2). Increasing amounts of DBC1 were added in addition to HADC1 (lanes 3-4) to investigate whether DBC1 can inhibit p53 deacetylation by HDAC1. […] The samples were resolved by SDS-PAGE and analyzed by Western Blot using antibodies for acetylated p53, total p53 (DO-1), HDAC1 and DBC1.
Finally, p53 could also be deacetylated by purified HDAC1 complexes as previously shown (Luo, 2000) (lane 2, FIG. 9); this deacetylase activity was not repressed by DBC1 (lanes 3-4).

Assay [3] has as its target T2, SIRT1 (Homo sapiens, UniProt Q96EB6).
T2 construct: made in house
T2 sequence (Q96EB6 1-747): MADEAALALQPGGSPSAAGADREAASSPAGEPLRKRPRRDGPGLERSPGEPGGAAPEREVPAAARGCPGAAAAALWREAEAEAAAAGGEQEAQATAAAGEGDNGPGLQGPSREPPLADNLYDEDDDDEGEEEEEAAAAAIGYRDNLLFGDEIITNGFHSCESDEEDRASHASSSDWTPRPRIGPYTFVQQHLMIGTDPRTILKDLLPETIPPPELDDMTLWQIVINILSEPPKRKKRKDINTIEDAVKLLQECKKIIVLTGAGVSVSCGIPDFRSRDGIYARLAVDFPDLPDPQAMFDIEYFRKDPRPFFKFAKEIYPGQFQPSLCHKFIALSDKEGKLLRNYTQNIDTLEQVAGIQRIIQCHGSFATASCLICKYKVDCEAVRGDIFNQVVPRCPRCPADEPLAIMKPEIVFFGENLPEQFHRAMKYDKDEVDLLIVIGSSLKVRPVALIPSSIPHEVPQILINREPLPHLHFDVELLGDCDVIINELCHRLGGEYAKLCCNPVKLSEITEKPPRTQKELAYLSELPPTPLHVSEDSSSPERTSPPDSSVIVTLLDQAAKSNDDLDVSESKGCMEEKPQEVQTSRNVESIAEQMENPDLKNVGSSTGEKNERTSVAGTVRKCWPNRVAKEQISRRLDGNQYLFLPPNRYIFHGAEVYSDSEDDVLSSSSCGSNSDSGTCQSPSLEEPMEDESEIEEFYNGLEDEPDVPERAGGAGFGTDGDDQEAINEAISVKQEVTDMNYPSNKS
Kind of assay: In vitro deacetylation assay, acetylated p53 as substrate of purified Flag-SIRT1. Conditions: purified system, 50 μM NAD, dose dependent, Western blot (FIG. 3c). On the procedure: FIG. 3. DBC1 inhibits SIRT1 mediated deacetylation of p53 (a) Fractionation of immunoprecipitated F-SIRT1 complex. 293 cells were transfected with Flag-tagged SIRT1 and Flag-SIRT1 complexes were subsequently purified by M2-immunoprecipitation in FLAG-lysis buffer. Flag-SIRT1 complex was eluted in 100 ul of elution buffer and half of the elution was fractioned by size-exclusion chromatography on a Sepherose12 Column on the SMART system. 10% of each fraction was analyzed by Western Blot for DBC1 (upper panel) and SIRT1 (lower panel). (b) DBC1 inhibits SIRT1 mediated deacetylation of p53 in vitro. […] The reactions were resolved on SDS-PAGE and analyzed by Western Blot using antibodies specific for acetylated p53, total p53 (DO-1), SIRT1 and DBC1. […] The reactions were resolved on SDS-Page and analyzed by Western Blot using antibodies specific for acetylated p53, total p53, SIRT1 and DBC1. […]
Although the deacetylase activity of SIRT1 is essential for its function, it is unknown how this activity is regulated. When purified Flag-SIRT1 complexes from human cells were analyzed by gel-filtration chromatography on a Superose 12 column (SMART system), SIRT1 and DBC1 polypeptides co-eluted in fraction 15 with an apparent molecular weight of 440 KDa (lane 4, FIG. 3a). […]

Chain of HDAC1 (Q13547 whole entry, species assumed): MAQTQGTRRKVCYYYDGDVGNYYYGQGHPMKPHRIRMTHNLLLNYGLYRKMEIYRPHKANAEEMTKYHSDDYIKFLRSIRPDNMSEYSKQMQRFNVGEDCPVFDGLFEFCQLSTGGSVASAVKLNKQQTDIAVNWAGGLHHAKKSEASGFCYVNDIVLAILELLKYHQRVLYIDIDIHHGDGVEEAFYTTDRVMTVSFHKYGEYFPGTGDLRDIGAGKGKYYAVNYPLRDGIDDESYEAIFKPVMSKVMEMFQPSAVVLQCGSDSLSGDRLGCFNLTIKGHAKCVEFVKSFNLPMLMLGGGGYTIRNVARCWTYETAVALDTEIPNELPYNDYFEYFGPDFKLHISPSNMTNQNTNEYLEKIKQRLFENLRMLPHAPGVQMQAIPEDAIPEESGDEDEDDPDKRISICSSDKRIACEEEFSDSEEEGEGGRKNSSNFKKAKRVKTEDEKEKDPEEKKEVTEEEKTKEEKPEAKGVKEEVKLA

Regarding `NC(=O)c1cccnc1` [nicotinamide, reference compound], the “SIRT2-mediated deacetylation of acetylated tubulin” value in assay [1] is on record as “inhibited”.
Consider “Flag-DBC1: Flag-tagged Deleted in Breast Cancer 1 protein purified by M2 immunoprecipitation under high stringency”, for which the “SIRT2-mediated deacetylation of acetylated tubulin” value in assay [1] is reported as “not affected”. The “HDAC1-mediated deacetylation of p53” value in assay [2] is “not repressed”. For the same compound, the “SIRT1-mediated deacetylation of acetylated p53” value in assay [3] was “strongly repressed”.

The values are drawn from patent US8043804B2, “DBC1, a novel native inhibitor of anti-aging protein SIRT1” (The Trustees of Columbia University in the City of New York, priority 2007, dated 2011).
